Results as given in patent US20260250420A1 (SICHUAN KELUN BIOTECH BIOPHARMACEUTICAL, published 2026).

Key:
[1] = target: T1, human Fc receptor protein FcRn (human, UniProt P55899 24-297; P61769 21-119, biotinylated); experiment: BLI (ForteBio), biotinylated receptor on SA sensor, antibody from 5,000 nM, 1:1 global fit
T1 construct: Biotinylated protein captured on SA sensors
From the text: (§1) The dynamic affinity of the antibodies 101A6HZ, 101A6HZm and Hu24 with human Fc receptor proteins CD16a, CD32a, CD32b, CD64 and FcRn was detected through ForteBio (Pall life sciences).

[2] = target: T2, human PTK7 on cells (tumor cells endogenously expressing PTK7); CHO-hPTK7, CHO-S-hPTK7 and 293T-hPTK7 … (human, UniProt Q13308 31-1070); experiment: cell-based or functional assay
T2 sequence (looked up): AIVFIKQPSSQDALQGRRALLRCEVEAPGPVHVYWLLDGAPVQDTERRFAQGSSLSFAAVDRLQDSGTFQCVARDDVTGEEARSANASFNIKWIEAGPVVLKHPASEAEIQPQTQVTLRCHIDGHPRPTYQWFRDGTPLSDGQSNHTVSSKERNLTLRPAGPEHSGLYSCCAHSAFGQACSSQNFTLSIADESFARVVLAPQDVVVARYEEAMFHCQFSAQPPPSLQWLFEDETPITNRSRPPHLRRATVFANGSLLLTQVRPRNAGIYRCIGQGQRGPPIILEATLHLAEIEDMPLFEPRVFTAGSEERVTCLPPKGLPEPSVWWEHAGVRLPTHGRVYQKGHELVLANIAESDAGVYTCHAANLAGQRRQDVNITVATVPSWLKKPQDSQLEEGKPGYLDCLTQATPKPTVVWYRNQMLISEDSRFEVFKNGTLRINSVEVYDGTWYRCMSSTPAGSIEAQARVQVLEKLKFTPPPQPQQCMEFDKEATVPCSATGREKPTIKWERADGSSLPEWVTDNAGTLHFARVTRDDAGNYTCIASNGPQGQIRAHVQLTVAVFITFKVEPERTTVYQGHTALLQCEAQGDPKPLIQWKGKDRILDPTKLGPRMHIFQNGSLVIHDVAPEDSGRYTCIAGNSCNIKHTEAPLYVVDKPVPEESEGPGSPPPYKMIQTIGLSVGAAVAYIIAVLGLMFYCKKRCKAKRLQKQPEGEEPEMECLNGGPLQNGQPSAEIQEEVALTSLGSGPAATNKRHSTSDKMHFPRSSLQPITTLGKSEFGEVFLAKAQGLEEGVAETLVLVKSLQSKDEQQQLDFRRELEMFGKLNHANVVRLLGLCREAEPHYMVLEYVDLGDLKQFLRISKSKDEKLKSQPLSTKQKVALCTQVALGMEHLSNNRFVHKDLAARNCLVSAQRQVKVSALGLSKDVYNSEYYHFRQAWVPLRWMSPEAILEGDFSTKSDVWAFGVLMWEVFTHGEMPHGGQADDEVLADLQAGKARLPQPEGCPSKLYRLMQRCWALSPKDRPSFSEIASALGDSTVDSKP

[3] = target: T3, human Fc receptor protein CD64 (human, UniProt P12314 16-292, limits assumed, biotinylated); experiment: BLI (ForteBio), biotinylated receptor on SA sensor, antibody in solution
T3 construct: Biotinylated protein captured on SA sensors
From the text: as §1

[4] = target: T4, human Fc receptor protein CD32b (human, UniProt P31994 43-217, biotinylated); experiment: as above
T4 construct: Biotinylated protein captured on SA sensors
T4 sequence (looked up): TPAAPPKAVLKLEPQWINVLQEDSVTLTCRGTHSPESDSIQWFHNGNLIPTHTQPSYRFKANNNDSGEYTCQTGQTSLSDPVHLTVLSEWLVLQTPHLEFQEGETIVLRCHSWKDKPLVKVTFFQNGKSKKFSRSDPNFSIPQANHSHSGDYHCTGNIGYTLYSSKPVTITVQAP
From the text: as §1

[5] = target: T5, human Fc receptor protein CD32a (human, UniProt P12318 34-217, biotinylated); experiment: as above
T5 construct: Biotinylated protein captured on SA sensors
T5 sequence (looked up): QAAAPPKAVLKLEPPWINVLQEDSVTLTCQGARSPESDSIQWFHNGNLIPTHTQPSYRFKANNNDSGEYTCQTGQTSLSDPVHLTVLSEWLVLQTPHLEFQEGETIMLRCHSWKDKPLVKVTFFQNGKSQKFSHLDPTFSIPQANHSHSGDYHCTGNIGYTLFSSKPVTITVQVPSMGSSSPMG
From the text: as §1

[6] = target: T6, human Fc receptor protein CD16a (human, UniProt P08637 17-208, biotinylated); experiment: as above
T6 construct: Biotinylated protein captured on SA sensors
From the text: as §1

T3 sequence (P12314 16-292 limits assumed): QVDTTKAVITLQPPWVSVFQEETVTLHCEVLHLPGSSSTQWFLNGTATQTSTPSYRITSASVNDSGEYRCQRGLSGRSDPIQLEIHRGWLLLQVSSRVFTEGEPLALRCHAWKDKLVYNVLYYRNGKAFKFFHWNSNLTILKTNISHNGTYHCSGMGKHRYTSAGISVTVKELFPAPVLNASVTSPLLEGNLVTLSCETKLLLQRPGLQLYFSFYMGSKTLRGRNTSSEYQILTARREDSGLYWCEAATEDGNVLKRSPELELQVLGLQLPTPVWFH
T1 sequence (P55899 24-297 limits assumed, form in doubt, chain 1 of 2): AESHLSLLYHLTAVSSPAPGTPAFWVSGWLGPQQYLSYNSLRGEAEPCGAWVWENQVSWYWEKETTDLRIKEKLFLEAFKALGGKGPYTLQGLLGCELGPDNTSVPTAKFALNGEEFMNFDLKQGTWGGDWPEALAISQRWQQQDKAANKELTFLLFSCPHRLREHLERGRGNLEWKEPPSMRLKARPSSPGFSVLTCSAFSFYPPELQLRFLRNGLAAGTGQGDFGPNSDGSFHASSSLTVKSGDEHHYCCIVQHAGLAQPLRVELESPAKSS
T1 sequence (P61769 21-119 limits assumed, form in doubt, chain 2 of 2): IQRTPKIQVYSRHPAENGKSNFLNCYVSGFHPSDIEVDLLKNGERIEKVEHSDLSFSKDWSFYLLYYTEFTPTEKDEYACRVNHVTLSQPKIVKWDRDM
T6 sequence (P08637 17-208 limits assumed): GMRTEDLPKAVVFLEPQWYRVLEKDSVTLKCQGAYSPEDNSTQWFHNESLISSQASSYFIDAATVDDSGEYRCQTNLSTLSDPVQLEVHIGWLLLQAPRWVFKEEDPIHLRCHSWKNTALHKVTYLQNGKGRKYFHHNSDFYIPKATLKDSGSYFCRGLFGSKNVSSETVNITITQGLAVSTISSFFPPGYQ

B1: 101A6HZm (101A6HZ with mutant human heavy chain constant region IgG1m) (antibody)
heavy: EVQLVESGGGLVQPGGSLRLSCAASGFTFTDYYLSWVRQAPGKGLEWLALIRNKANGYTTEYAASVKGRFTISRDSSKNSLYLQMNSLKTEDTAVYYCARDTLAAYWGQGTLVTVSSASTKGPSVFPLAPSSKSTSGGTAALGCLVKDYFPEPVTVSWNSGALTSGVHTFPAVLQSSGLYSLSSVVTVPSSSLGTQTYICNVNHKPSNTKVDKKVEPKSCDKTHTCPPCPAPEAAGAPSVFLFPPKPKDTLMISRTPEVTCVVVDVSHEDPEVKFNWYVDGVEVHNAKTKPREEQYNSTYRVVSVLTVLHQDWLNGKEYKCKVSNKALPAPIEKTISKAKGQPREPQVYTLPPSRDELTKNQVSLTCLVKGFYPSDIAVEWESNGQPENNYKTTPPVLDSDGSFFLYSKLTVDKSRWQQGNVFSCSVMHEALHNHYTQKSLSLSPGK
light: DIVMTQSPDSLAVSLGERATINCKASQDVGSAVIWYQQKPGQSPKLLIYWASTRHTGVPDRFSGSGSGTDFTLTISSLQAEDVAVYYCQQYSSYPLTFGQGTKLEIKRTVAAPSVFIFPPSDEQLKSGTASVVCLLNNFYPREAKVQWKVDNALQSGNSQESVTEQDSKDSTYSLSSTLTLSKADYEKHKVYACEVTHQGLSSPVTKSFNRGEC
notes: light chain as in 101A6HZ; also called anti-human PTK7 humanized mutant antibody
Kd [1]: 16.6 nM
Cell endocytosis, EC50, A431 cells [2]: 0.0732 µg/mL
Cell endocytosis, EC50, HCC1806 cells [2]: 0.0576 µg/mL
Cell endocytosis, EC50, NCI-H358 cells [2]: 0.0729 µg/mL
Cell endocytosis, EC50, OVCAR3 cells [2]: 0.0665 µg/mL
binding result [3]: no binding (tested: initial concentration of 5,000 nM)
binding result [4]: no binding (tested: initial concentration of 5,000 nM)
binding result [5]: no binding (tested: initial concentration of 5,000 nM)
binding result [6]: no binding (tested: initial concentration of 5,000 nM)
